From patent US20190144503A1 (REGENTS OF THE UNIVERSITY OF MINNESOTA, published 2019)
Like-named read-outs stand apart in the source and are kept apart here. One block for each binder: values may come before it.

What was measured:
[1] = target: T1, recombinant His-tagged human carbonic anhydrase 9 (human, UniProt Q16790 38-414); experiment: titration of the purified clone, Relative Binding to CA9 against concentration (x axis printed 'AAZ Concentration (nM)'); assay format not described
[2] = target: T1, recombinant His-tagged human carbonic …; experiment: as above; remark: listed apart in the source
[3] = target: T1, recombinant His-tagged human carbonic …; experiment: binding of the purified clone to CA9 (FIG. 14B); method not stated

B2: Clone 0.3.10 fibronectin type III domain (SEQ ID NO: 3) not conjugated to AAZ (designed binder)
chain: MASSSDSPRNLEVTNATPNSLTISWDSYLDCAYYYRITYGETGGNSPSQEFTVPGYTNSVTISGLKPGQDYTITVYAVASSNDVSNPISINYRTEIDKPSQGS
- Kd [1]: 600 nM

B3: Fn-AAZ clone 0.3.9 (fibronectin type III domain of SEQ ID NO: 4 conjugated to acetazolamide) (designed binder)
chain: MASSSDSPRNLEVTNATPNSLTISWDDSYCVIYYRITYGETGGNSPSQEFTVPGYTNSVTISGLKPGQDYTITVYAVTDYSKLDPSNPISINYRTEIDKPSQGS
modifications: acetazolamide (AAZ) conjugated through a maleimide-PEG linker to the single cysteine; PEG length not stated for this clone
notes: Expressed and purified clone, conjugated with maleimide-PEG-AAZ; also called second Fn-AAZ clone; second Fn-AAZ conjugate
- Kd [2]: ~30 nM
- fold higher affinity than the Fn not conjugated to AAZ [3]: ~6 fold

More lines, now with the values ahead:

- Kd [1]: 60 nM
B1: Fn-AAZ clone 0.3.10 (fibronectin type III domain of SEQ ID NO: 3 conjugated to acetazolamide) (designed binder)
chain: B2 chain
modifications: acetazolamide (AAZ) conjugated through a maleimide-PEG linker to the single cysteine; PEG length not stated for this clone
notes: Expressed and purified clone, conjugated with maleimide-PEG-AAZ; also called first Fn-AAZ clone; first Fn-AAZ conjugate

- Kd [2]: 170 nM
B4: Clone 0.3.9 fibronectin type III domain (SEQ ID NO: 4) not conjugated to AAZ (designed binder)
chain: B3 chain
